Test results reported in patent CN107022030A (GUANGDONG GUYING BIOTECHNOLOGY INDUSTRIAL RES INSTITUTE CO …, dated 2017).

Experiments:
[1] = molecular target: T1, 人血清白蛋白(human serum albumin，HSA) (human, UniProt P02768 25-609); experiment: indirect ELISA, HSA as cross-reaction antigen
T1 construct: Used at 40 mg/ml as the cross-reaction antigen; also called HAS

[2] = molecular target: 人甲胎蛋白(human alpha fetoprotein，hAFP) (human) (UniProt P02771); experiment: ELISA titre of ascites antibody on hAFP
UniProt P02771, sequence (P02771 19-609): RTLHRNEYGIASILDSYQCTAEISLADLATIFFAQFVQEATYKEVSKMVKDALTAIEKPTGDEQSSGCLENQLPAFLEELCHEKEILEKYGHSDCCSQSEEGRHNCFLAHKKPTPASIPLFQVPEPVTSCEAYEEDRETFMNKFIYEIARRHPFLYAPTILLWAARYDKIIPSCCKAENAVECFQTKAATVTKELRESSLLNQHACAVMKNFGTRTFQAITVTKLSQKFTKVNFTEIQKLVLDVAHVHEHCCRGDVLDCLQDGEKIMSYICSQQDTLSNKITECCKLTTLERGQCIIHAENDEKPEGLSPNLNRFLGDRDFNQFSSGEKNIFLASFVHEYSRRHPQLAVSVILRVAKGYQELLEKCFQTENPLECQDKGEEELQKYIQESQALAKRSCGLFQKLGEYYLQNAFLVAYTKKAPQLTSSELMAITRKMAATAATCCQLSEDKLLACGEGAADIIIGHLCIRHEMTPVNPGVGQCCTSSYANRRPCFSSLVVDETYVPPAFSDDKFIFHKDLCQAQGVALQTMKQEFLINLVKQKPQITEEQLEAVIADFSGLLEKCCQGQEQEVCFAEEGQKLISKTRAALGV

T1 sequence (P02768 25-609): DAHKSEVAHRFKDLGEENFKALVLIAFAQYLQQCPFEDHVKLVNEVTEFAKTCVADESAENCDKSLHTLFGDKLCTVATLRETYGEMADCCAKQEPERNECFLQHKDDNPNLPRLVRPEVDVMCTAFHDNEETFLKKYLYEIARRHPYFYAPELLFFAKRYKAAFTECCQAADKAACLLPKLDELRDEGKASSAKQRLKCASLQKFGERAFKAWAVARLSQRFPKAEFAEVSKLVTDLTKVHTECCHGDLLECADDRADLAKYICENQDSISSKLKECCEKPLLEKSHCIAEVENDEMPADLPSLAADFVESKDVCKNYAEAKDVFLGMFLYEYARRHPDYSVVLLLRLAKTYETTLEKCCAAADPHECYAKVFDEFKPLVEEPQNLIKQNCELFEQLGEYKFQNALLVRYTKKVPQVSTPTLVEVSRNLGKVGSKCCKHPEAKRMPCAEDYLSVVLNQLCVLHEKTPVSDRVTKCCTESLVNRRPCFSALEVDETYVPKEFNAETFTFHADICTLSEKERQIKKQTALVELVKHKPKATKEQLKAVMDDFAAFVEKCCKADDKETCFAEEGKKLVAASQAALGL

Row | Binder | binding result [1] | 腹水效价 [2]
1 | 单克隆抗体Ab3 (antibody, V domains shown, Mouse monoclonal IgG from hybridoma ascites, Protein G purified; HRP-labelled in the immunohistochemistry; also called Ab3-HRP) VH: VKLQESGAELVKPGASVKLSCTASGFNIKDTYMHWVKQRPEQGLEWIGGIDPANGKTKFDPKFQGKATITADTSSNTAYLHLSRLTSDDTAVYYCVRGQVGGRGWFAYWGQGTTVTVSS VL: DIQLTQSPSSLSASLGERVSLTCRASQEISGYLSWLQRKPDGTIKRLIYAASTLDSGVPKRFSGSRSGSDYSLTISSLESEDFADYYCLQYASYPYTFGGGTKL | no binding (tested: 40mg/ml) | –
2 | 单克隆抗体Ab4 (antibody, part only; not given: light chain variable region, constant regions, V domains shown, part only) VH: VKLQQSGPELVKPGASVTLSCKASGYTFTSYYIHWVKQRPGQELEWIGWIYPGNVNTKYNEKFKGKATLTADKSSSTAYMQLSSLTSEDSAVYFCARCSGRLYYAMDYWGQGTTVTVSS | – | < 3e+07
